Data: patent publication US20120149645A1, “COMPOSITIONS AND MODULATION OF MYOCYTE ENHANCER FACTOR 2 (MEF2)” (EMORY UNIVERSITY, priority 2010, published 2012)

Tests used:
mitochondrial complex I = assay: Mitochondrial complex protein level and activity (BN-PAGE, in-gel staining, quantitative assays); format: cell-based, mouse; settings: over-expression in SN4741 cells
From the text: (A) Requirement of mitochondrial MEF2D for complex I activity. […] Control indicates the control vector group. (B) Over-expression of ND6 rescued complex I activity reduced by Mt2Ddn. Control indicates the control vector group. (C) Measurement of various complex activities. […] Control indicates the control vector group. (D) Effects of over-expression of Mt2D or Mt2Ddn on mitochondrial function. Mt2Ddn reduced cellular ATP level and elevated H2O2 production in SN4741 cells (n=4; *p<0.05; **P<0.01). Control indicates the control vector group.
Mitochondrial complex I activity was evaluated initially by blue native-polyacrylamide gel electrophoresis (BN-PAGE) and in-gel activity staining. This assay measures total complex I activity. Rotenone sensitive complex I activity and activities of other mitochondrial complexes were further measured by methods described by Antoni et al., J Biol Chem, 1998, 273:14210-14217. Briefly, parallel assays were performed to measure complex I activity at 340 nm using 2,3-dimethoxy-5-methyl-6-n-decyl-1,4-benzoquinone (DB) (50 μM) as acceptor and NADH (0.8 mM) as donor, in 50 mM Tris (pH 8.0) buffer supplemented with 5 mg/ml BSA either without or with the addition of 4 μM rotenone, which gave total and rotenone insensitive complex I activities, respectively. The difference in value between the two provided a quantified measure of the rotenone-sensitive activity. Mitochondrial membrane potential was detected using a kit (cat. no. 280002) from Stratagene following the procedures provided by the manufacturer. The fluorescent dye JC-1 (5,5′,6,6′-tetrachloro-1,1′,3,3′-tetraethylbenzimidazolyl carbocyanine iodide) stains mitochondria red in a membrane potential dependent manner. Briefly, cells were seeded in 96-well plates at 4×10^4 cells/well with 100 μl culture medium and incubated at 33° C. with 5% CO2. After treatment, 10 μl/well of premixed JC-1 staining solution was added, and the cells were incubated for an additional 30 min under the same conditions. After thorough washes, 100 μl assay buffer was added to each well. Fluorescence signal was detected with excitation and emission at 520 nm and 590 nm, respectively, on a multi-well plate reader (Bio-Tek). Cellular ATP and H202 were measured by Bioluminescent Somatic Cell ATP Assay Kit (Sigma) and Hydrogen Peroxide Assay Kit (Cayman), respectively.

SN4741 cells = assay: Subcellular localization of over-expressed MEF2D constructs; format: cell-based, mouse; settings: over-expressed in SN4741 cells
From the text: (A) Lack of mitochondrial localization by ΔN30MEF2D. […] VDAC, PARP and c-Raf are Mt, Nu and Cy markers, respectively. Control indicates the control vector group. (B) Immunocytochemistry analysis of mitochondrial localization of transfected Flag-MEF2D. […] Experiments were repeated four times. (C, D) Requirement of mtHsp70 for mitochondria-targeting of MEF2D (n=4; **p<0.01). Control indicates untreated. […]. Knocking down mouse mtHsp70 by siRNA reduced MEF2D level in purified mitochondria from SN4741 cells (C). […] MnSOD is a known mtHsp70-imported mitochondrial matrix protein.
(A) Diagrams of Mt2DVP16 and MtND6. Mt2DVP16 was constructed by fusion of transactivation domain (TAD) of VP16 with DNA-binding domain of MEF2D and a mitochondria-targeting sequence (Mito). […] (C) Over-expression of Mt2DVP16 attenuated MEF2D siRNA-induced reduction of ND6 expression (n=3, **P<0.01).
Control indicates the group co-tranfected with control vector.
SN4741 cells or primary midbrain DA neurons were plated on glass slides in 24-well plates. Localizations of endogenous and exogenous MEF2D were visualized on a Zeiss LSM5 PASCAL confocal microscope. […] Quantification of colocalization of signals was done using “Colocalization Analysis” program of software Image Pro (Media Cybernetics). […]

[1] = non-denature gel electrophoresis

B1: Mt2Ddn: Mitochondria-targeting dominant-negative MEF2D: mouse MEF2D 1-131aa with mitochondria-targeting signal, lacks the transactivation domain (protein, UniProt Q63943 1-131, looked up, fragment)
chain: MGRKKIQIQRITDERNRQVTFTKRKFGLMKKAYELSVLCDCEIALIIFNHSNKLFQYASTDMDKVLLKYTEYNEPHESRTNADIIETLRKKGFNGCDSPEPDGEDSLEQSPLLEDKYRRASEELDGLFRRY
modifications: mitochondria-targeting signal added
Mitochondrial complex I
  mitochondrial complex I activity: significantly reduced
Mitochondrial complex I; [1]
  protein level of complex II-V: no effect
  protein level of mitochondrial complex I: markedly reduced
SN4741 cells
  mitochondrial localization by immunocytochemical staining (MitoTracker): targeted exclusively to mitochondria
